The results in this text go back to the nanobody polyreactivity screen of Harvey et al. (2022).

The series can be described thus: yeast display, Sf9 membrane polyspecificity reagent, FACS + sequencing; frameworks hold sequencing errors. In outline:
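Galactose-induced (36–48 hours) yeast carrying a synthetic nanobody display library were exposed to 10% biotinylated, detergent-solubilized Sf9 membrane reagent at 4 °C for 1 hour. FACS followed streptavidin microbead enrichment, using low and high (top ~1%) gates for expression (anti-HA) and reagent binding (streptavidin). Colony PCR, MiSeq 2 × 250 sequencing and CDR-length filtering followed. Labels for polyreactivity reflect the gate of origin.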
For “QVQLVESGGGLVQAGGSLRLSCAASGSNLSAYAMGWYRQAPGKERELVAAISWSGGSTYYADSVKGRFTISRDNAKNTVYFQMNSLKPEDTAVYYCATVNKKWRRYDYWGQGSQVTVSS”, the “polyreactivity (PSR sort gate)” value is recorded as “high polyreactivity”.

On to “QVQLVESVGGLVQAGGSLRLSCAASGSTFAGYAMGWYRQAPGKERELVAAISGGRTYYADSVKGRFTISRDNAKNTVYLQMNSLQPEDTAVYYCAKRYFYYTAYNAYGYWGQGTQVTVSS”, for which the “polyreactivity (PSR sort gate)” value is on record as “high polyreactivity”.

For the sequence “QDQLVESGGVLVQARGSLRLSCAASASTLPGYAMGWYRQAPGKERELVAAISSSGTSTYYADSVKGRFTISRDNAKNTVYLQMNSLKPEDTAVYYCAAEGYRWVTAYYDYDEDYWGQGTQVTVSS”, the “polyreactivity (PSR sort gate)” value was “low polyreactivity”.

On to “QGQHVESGGGLVQAGGSLRLSCAASGNILASNGMGWYRQAPGKERELVAAITFSGDTTYYADSVKGRFTISRDNAKNTVYLQMNSLKPEDTAVYYCNDGSFIVNGGYDGDYWGQGTQVTLSS”, for which the “polyreactivity (PSR sort gate)” value is reported as “low polyreactivity”.

Turning to “QVQLVESGGGLVQAGGSLRLSCAASGITFVYYDMGWYRQAPGKERELVAAISSGGSTYYADSVKGRFTISRDNAKNNVYLQMNRLKPEDTAVYYCAAKISSNYHIGGDDYWGQGTQVTVSS”, the “polyreactivity (PSR sort gate)” value is on record as “high polyreactivity”.

On to “QVQLVESGGGLVQAGGSLRLSCAASGRTFHGYAMGWSRQAPGKERELVARINWSDGRTYYADSVKGRFTISRDNAKNTVYLQMNSLKPADTGVYYCAARLYSSASGVRWIKFDYWGQGTQVTVSS”, for which the “polyreactivity (PSR sort gate)” value is on record as “low polyreactivity”.

Take “QVQLEESGGGLVQAGGSLRLSCAASGSIFSYNSMGWYRQAPGKDREFVATIDWRDGSTYYADSVKGRFTISRDNGKNTVYLQMNSMKPEDTAVYYCATDYIVVEDYYWGQGTQVTVSS”: the “polyreactivity (PSR sort gate)” value is “high polyreactivity”.

Take “QVQLVESAGGLVQAGGSLRLSCAASGRIFGINSLGWYRQAPGKERELDAAISSGGSTYYADSVKGRFTISRDNAKYTVYILMNSEKPVDSAVYYCASDYDSSVCHDRGFWRDYWGQGNQVTVSS”: the “polyreactivity (PSR sort gate)” value is “low polyreactivity”.

With “QVQLVESGGGLVQAGGSLRLSCAASGRIFSKYAMGLYRQAPEKERELVAAISGTGGSTYYADSVKGRFTISRDNSKNTVYLHMNSLKTEDTAVYYCAAEWYGRMYYWGQGTQVTVSS”, the “polyreactivity (PSR sort gate)” value is “high polyreactivity”.

Regarding “QVQLVESGGGLVQAGGSLRLSCAASGFIIRRYAMGRYRQAPGKEREMVASIDRSGASTYYADSVKGRLTISRDNAKYTVYLQMNSLKPEDTAVYYCNKAFAWTGWYSVQGDYWGQGTQVTVSS”, the “polyreactivity (PSR sort gate)” value is given as “high polyreactivity”.

For the sequence “QVQLVESGGGLVQAGGSLRLSCAASGFTFVAYAMGWYRQAPGKERELVAAITWSGSRTYYADSVKGRFTISRDNAKNTVYLQMNSLKPEDTAVYYCAAGKTEGHYGYWGQGTQVTVSS”, the “polyreactivity (PSR sort gate)” value is reported as “high polyreactivity”.

Consider “QVQLVESGGGLVQAGGSLRLTCAASGSIFWPNAMGWYRPAPGKERELVAAISWGTGSTYYADSVKGRFTISRDNAKNTVYLQMNSLKPEDTAVYYCAADGAYLDPYYDYWGQGTQVTVSS”, for which the “polyreactivity (PSR sort gate)” value is reported as “low polyreactivity”.

Regarding “QVQLVESGGGLVQAGGSLRLSCAASGNTFYPNAMGWYRQAPGKERELVAAITTSGGTTYYADSVKGRFTISRDNAKNTVYLQMNSLKPEDTAVYYCAAYWSRDKYDYWGQGTQVTVSS”, the “polyreactivity (PSR sort gate)” value is reported as “low polyreactivity”.

For the sequence “QVQLVESGGGLVQAGGSLRLSCAASGSTFLGNAMGWYRQAPGKERELVATITGSSGSTYYADSVKGRFTISRDNAKNTVYLQMNSLKPEDTAVYYCNTVYNYWDGYDYWGQGTQVTVSS”, the “polyreactivity (PSR sort gate)” value is on record as “low polyreactivity”.

On to “QVQLVESGGGLVQAGGSLRLSCAASGSIFQYYVMGWYRQAPGKERELVAAISQSGGRTYYADSVKGRFTISRDNAKNTFYLQMNSLKPEDTAVYYCAAYSRNAEYDYWGQGTQVTVSS”, for which the “polyreactivity (PSR sort gate)” value was “high polyreactivity”.

Regarding “QVQLVESGGGLVQAGGSLRLSCAASGRTFNDYTMGWYRQAPGKERELVAAISSSGVRTYYADSVKGRFTISRDNAKNTVYLQMNSLKPEDTAVYYAKRAGYDRRWTYDYWGQGTQVTVSS”, the “polyreactivity (PSR sort gate)” value is “high polyreactivity”.

Turning to “QVQLVESGGGLVQAGGSLRLSCAASGLTFGGYAMGWYRQAPGKERELVAAISRSGTSTYYADSVKGRFTISRDNAKNTVYLQMNSLKPEDTAVYYCAKELYSWLQGYRGEGTMDYWGQGTQVTVSS”, the “polyreactivity (PSR sort gate)” value is reported as “high polyreactivity”.

Take “QVQLLESGGGLVQAGGSLRESCAASGSMFSHNTMGWYRQAPGKERELVATINWRATYYADSVKGRFTISRDNAKNTVYLQMNSLKPEDTAGYYCNKDRQRYGEDYWGQGTQVTVSS”: the “polyreactivity (PSR sort gate)” value was “high polyreactivity”.

“QVQLEESGGGLVQAGGIRRLSCAASGRIFPYYAMGWYRLAPGKERELVAAISLSGGSTYYADSVKGRFTISRDTAKMSGYLQMTSLKPEDTAVYYGNAVASTSGYYWYPGLGYDYCGQGTQVTVSS”: the “polyreactivity (PSR sort gate)” value is “low polyreactivity”.

Take “QVQLVESGGGLVQAGGSLSLSCAASGRIFPTYTMGWYRQAPGKERELVAAINRGGGSTYYADSVKGRFTISRDIAMNTVYLQMYSLKAEDTAVYYCNARTYYRSYGYDYCGQGTQVTVSS”: the “polyreactivity (PSR sort gate)” value is “low polyreactivity”.

As for “QVQLVESGGGLVQAGGSLRLSCAASGSIFPHNTMGWYRQAPGNERELVAAISRSGGSTYYADSVKGRFTISRDNAKNTVYLQMNSLKPEDTAVYYCARDSYDVGHQVVSDERLYDYWGQGTQVTVSS”, the “polyreactivity (PSR sort gate)” value is “low polyreactivity”.

On to “QVQLVESGGGLVQAGGSLRLSCAASGGTFARNAMGWYRQAPGKERELVAAIRGGVSTNYADSVKGRFTISRDNAKNTVYLQMNSLKPEDTAVYYCNASPPTLEGYWGQGTQVTVSS”, for which the “polyreactivity (PSR sort gate)” value is on record as “low polyreactivity”.

Consider “QVQLVESCGGLVQAGGSLRLSCAASGFIFYDYDMGWYRQAPGKQRELVAAITYSGASTYYADSVKGRFTISRDNAKNTVYLQMNSLKPEDTAVFYCAAVKSRYADAVDYYYWGQGTQVTVSS”, for which the “polyreactivity (PSR sort gate)” value was “low polyreactivity”.

Consider “QVQLVESGGGLVQAGGSLRLSCAASGFTLKYYAMGWYRQAPGKERELVAAITSSGGSTYYADSVKGRFTISRDNAKNTVYLQMNSLKPEDTAVYYCNAVTVYKHGSWGQGTQVTVSS”, for which the “polyreactivity (PSR sort gate)” value is listed as “high polyreactivity”.

With “QVQVVQSGGGLVQAGGSLRLSCAASGSIFVPNSMGWYRPPPGKERELVAAISLSGGSTYYADSVKGRFTISRDYARNTVYLQMTSLKPEDSAVYYCAADIFYYSSSYGYWGLGTQVTVSS”, the “polyreactivity (PSR sort gate)” value is “low polyreactivity”.

As to “QVQLVESGGGLFQAGGSLRLSCAPSGRTFSHYAMGWYRQAPGKERELVAAISWSGGRTYYADSVKGRFTISRYNAKNTVYLQMNSLKPEDTAVYYCATDKVSNRRYDYWGQGTQVTVSS”, the “polyreactivity (PSR sort gate)” value is “high polyreactivity”.

Consider “QVQLEESGGGLVQAGGSHRLSCPASGRTFYKNAMGWSRQAPRKERELVAAITSGGSTNYADSVKGRFSISRDNAKNSVYLQMNSLKSEDTAVYYCAAQQFPYYRSRFSYINKYDYWGQGTQVTVSS”, for which the “polyreactivity (PSR sort gate)” value is given as “high polyreactivity”.

As for “QVQLVESGGGLVQAGGSLRLSCAASGSIFSGNAMGWYRQAPGKERELVAAISRSGGSTYYADSVKGRFTISRDYAKNTVYLQMNSLKPEDTAVYYCAKGQYYYIGDYDYWGQGTQVTVSS”, the “polyreactivity (PSR sort gate)” value is recorded as “high polyreactivity”.

In the case of “QVQLVESGGGLVQAGGSLRLSCAASGITFYGYTMGWYRQAPGKERELVAAITSGGITYYADSVKGRFTISRDNAKNTVYLQMNSLKPEDTAVYYCNADDVWYEYDYWGEGTQVTVSS”, the “polyreactivity (PSR sort gate)” value was “high polyreactivity”.

For “QVQLVESGGGLVQAGGSLRLSCAASGSTFQRYAMGWYRQAPGKERELVASISTSGGSTYYAHSVKGRFTISRDNAKNTVYLQMNSLKPEDTAVYYCAAQGWSRQVREGWIKRDYWGQGTQVTVSS”, the “polyreactivity (PSR sort gate)” value is “high polyreactivity”.
